Test results taken from the array DNA melting data of Ke et al..

assay: melting temperature; melt of duplexes; details: sodium 0.0675 M; strand 1 µM

Substance | Tm [°C]
CGACGTGCAAGATGTGCTG+CAGCACATACGGCACGTCG ((((((((...((((((((+))))))))...)))))))) | 49.2
CGACGTGCAAGATGTGCTG+CAGCACATAGCGCACGTCG ((((((((...((((((((+))))))))...)))))))) | 49.8
CGACGTGCAAGATGTGCTG+CAGCACATATAGCACGTCG ((((((((.(.((((((((+)))))))).).)))))))) | 52
CGACGTGCAAGATGTGCTG+CAGCACATATCGCACGTCG ((((((((.(.((((((((+)))))))).).)))))))) | 50.3
CGACGTGCAAGATGTGCTG+CAGCACATCCCGCACGTCG ((((((((..(((((((((+)))))))))..)))))))) | 52.9
CGACGTGCAAGATGTGCTG+CAGCACATCGCGCACGTCG ((((((((..(((((((((+)))))))))..)))))))) | 58.4
CGACGTGCAAGATGTGCTG+CAGCACATCGTGCACGTCG (((((((((.(((((((((+))))))))).))))))))) | 57.4
CGACGTGCAAGATGTGCTG+CAGCACATCTAGCACGTCG ((((((((.((((((((((+)))))))))).)))))))) | 57.9
CGACGTGCAAGATGTGCTG+CAGCACATGGCGCACGTCG ((((((((...((((((((+))))))))...)))))))) | 51.3
CGACGTGCAAGATGTGCTG+CAGCACATGGGGCACGTCG ((((((((...((((((((+))))))))...)))))))) | 50.8
CGACGTGCAAGATGTGCTG+CAGCACATGTCGCACGTCG ((((((((.(.((((((((+)))))))).).)))))))) | 51.3
CGACGTGCAAGATGTGCTG+CAGCACATGTTGCACGTCG ((((((((((.((((((((+)))))))).)))))))))) | 57.8
CGACGTGCAAGATGTGCTG+CAGCACATTAGGCACGTCG ((((((((...((((((((+))))))))...)))))))) | 51.3
CGACGTGCAAGATGTGCTG+CAGCACATTCCGCACGTCG ((((((((...((((((((+))))))))...)))))))) | 49.4
CGACGTGCAAGATGTGCTG+CAGCACATTCGGCACGTCG ((((((((...((((((((+))))))))...)))))))) | 51.3
CGACGTGCAAGATGTGCTG+CAGCACATTCTGCACGTCG (((((((((..((((((((+))))))))..))))))))) | 53.2
CGACGTGCAAGATGTGCTG+CAGCACATTGCGCACGTCG ((((((((...((((((((+))))))))...)))))))) | 52.9
CGACGTGCAAGATGTGCTG+CAGCACATTGGGCACGTCG ((((((((...((((((((+))))))))...)))))))) | 51.5

Substance | Tm [°C]
CGACGTGCAAGATGTGCTG+CAGCACATTGTGCACGTCG (((((((((..((((((((+))))))))..))))))))) | 50.6
CGACGTGCAAGATGTGCTG+CAGCACATTTTGCACGTCG ((((((((((.((((((((+)))))))).)))))))))) | 57.3
CGACGTGCAATATGTGCTG+CAGCACATAATGCACGTCG (((((((((.(((((((((+))))))))).))))))))) | 54.6
CGACGTGCAATATGTGCTG+CAGCACATACAGCACGTCG ((((((((..(((((((((+)))))))))..)))))))) | 50.3
CGACGTGCAATATGTGCTG+CAGCACATATTGCACGTCG (((((((((((((((((((+))))))))))))))))))) | 61.2
CGACGTGCAATATGTGCTG+CAGCACATCAAGCACGTCG ((((((((...((((((((+))))))))...)))))))) | 48
CGACGTGCAATATGTGCTG+CAGCACATCAGGCACGTCG ((((((((...((((((((+))))))))...)))))))) | 48.7
CGACGTGCAATATGTGCTG+CAGCACATCATGCACGTCG (((((((((..((((((((+))))))))..))))))))) | 50.3
CGACGTGCAATATGTGCTG+CAGCACATCCAGCACGTCG ((((((((...((((((((+))))))))...)))))))) | 48.1
CGACGTGCAATATGTGCTG+CAGCACATCGAGCACGTCG ((((((((...((((((((+))))))))...)))))))) | 48.2
CGACGTGCAATATGTGCTG+CAGCACATCGCGCACGTCG ((((((((...((((((((+))))))))...)))))))) | 47.4
CGACGTGCAATATGTGCTG+CAGCACATGAAGCACGTCG ((((((((...((((((((+))))))))...)))))))) | 52.3
CGACGTGCAATATGTGCTG+CAGCACATGAGGCACGTCG ((((((((...((((((((+))))))))...)))))))) | 51.3
CGACGTGCAATATGTGCTG+CAGCACATGCGGCACGTCG ((((((((...((((((((+))))))))...)))))))) | 49.7
CGACGTGCAATATGTGCTG+CAGCACATGGTGCACGTCG (((((((((..((((((((+))))))))..))))))))) | 51
CGACGTGCAATATGTGCTG+CAGCACATTAAGCACGTCG ((((((((...((((((((+))))))))...)))))))) | 50.1
CGACGTGCAATATGTGCTG+CAGCACATTACGCACGTCG ((((((((...((((((((+))))))))...)))))))) | 49.7
CGACGTGCAATATGTGCTG+CAGCACATTATGCACGTCG (((((((((..((((((((+))))))))..))))))))) | 52.1
